# Reference: publication PMC4324565
# Molecular target: biotinylated gp120 165-182 peptide (HIV-1 (AE.A244))
# Experiment: BLI
binder,measurement,value
"CH59 unmutated ancestor (CH59-UA) Fab (Fab, V domains shown) VH: EVQLVESGGGLVQPGRSLRLSCAASGFTFDDYAMHWVRQAPGKGLEWVSGISWNSGSIGYADSVKGRFTISRDNAKNSLYLQMNSLRAEDTALYYCAKDSPRGELPFDYWGQGTLVTVSS VL: SYELTQPPSVSVSPGQTARITCSGDALPKKYAYWYQQKSGQAPVLVIYEDSKRPSGIPERFSGSSSGTMATLTISGAQVEDEADYYCYSTDSSGNHRVFGGGTKLTVL",Kd,500 nM
